According to IntAct's records for PubMed 19250911:

B1: Next to BRCA1 gene 1 protein (Homo sapiens), Q14596 (parent)
chain: MEPQVTLNVTFKNEIQSFLVSDPENTTWADIEAMVKVSFDLNTIQIKYLDEENEEVSINSQGEYEEALKMAVKQGNQLQMQVHEGHHVVDEAPPPVVGAKRLAARAGKKPLAHYSSLVRVLGSDMKTPEDPAVQSFPLVPCDTDQPQDKPPDWFTSYLETFREQVVNETVEKLEQKLHEKLVLQNPSLGSCPSEVSMPTSEETLFLPENQFSWHIACNNCQRRIVGVRYQCSLCPSYNICEDCEAGPYGHDTNHVLLKLRRPVVGSSEPFCHSKYSTPRLPAALEQVRLQKQVDKNFLKAEKQRLRAEKKQRKAEVKELKKQLKLHRKIHLWNSIHGLQSPKSPLGRPESLLQSNTLMLPLQPCTSVMPMLSAAFVDENLPDGTHLQPGTKFIKHWRMKNTGNVKWSADTKLKFMWGNLTLASTEKKDVLVPCLKAGHVGVVSVEFIAPALEGTYTSHWRLSHKGQQFGPRVWCSIIVDPFPSEESPDNIEKGMISSSKTDDLTCQQEETFLLAKEERQLGEVTEQTEGTAACIPQKAKNVASERELYIPSVDLLTAQDLLSFELLDINIVQELERVPHNTPVDVTPCMSPLPHDSPLIEKPGLGQIEEENEGAGFKALPDSMVSVKRKAENIASVEEAEEDLSGTQFVCETVIRSLTLDAAPDHNPPCRQKSLQMTFALPEGPLGNEKEEIIHIAEEEAVMEEEEDEEDEEEEDELKDEVQSQSSASSEDYIIILPECFDTSRPLGDSMYSSALSQPGLERGAEGKPGVEAGQEPAEAGERLPGGENQPQEHSISDILTTSQTLETVPLIPEVVELPPSLPRSSPCVHHHGSPGVDLPVTIPEVSSVPDQIRGEPRGSSGLVNSRQKSYDHSRHHHGSSIAGGLVKGALSVAASAYKALFAGPPVTAQPIISEDQTAALMAHLFEMGFCDRQLNLRLLKKHNYNILQVVTELLQLNNNDWYSQRY
partner: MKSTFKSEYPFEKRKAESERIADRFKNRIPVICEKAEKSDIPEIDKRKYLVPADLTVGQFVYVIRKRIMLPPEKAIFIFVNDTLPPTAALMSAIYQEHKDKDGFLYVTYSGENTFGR
B2: Next to BRCA1 gene 1 protein (Homo sapiens), Q14596 (parent)
chain: B1 chain

Experiments:
atg8_yeast ATG8, P38182 = variants of: B1; conditions: with atg8_yeast ATG8, P38182
[1] = variants of: B2; conditions: with gbrap_human GABARAP
[2] = variants of: B2; conditions: with gbrl2_human GABARAPL2, P60520
[3] = variants of: B2; conditions: with mlp3b_human MAP1LC3B

Chain of gbrl2_human GABARAPL2, P60520 (P60520 whole entry): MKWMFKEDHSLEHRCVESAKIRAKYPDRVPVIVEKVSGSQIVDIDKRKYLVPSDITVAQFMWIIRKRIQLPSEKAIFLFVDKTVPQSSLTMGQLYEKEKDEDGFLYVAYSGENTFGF

Row | effect of a mutation on the interaction (atg8_yeast ATG8, P38182) | effect of a mutation on the interaction [1] | effect of a mutation on the interaction [2] | effect of a mutation on the interaction [3] | Variant
1 | decreasing interaction |  |  |  | Y732A
2 |  | decreasing interaction | decreasing interaction | decreasing interaction | Y732A
